T1: H3K9me1 peptide (UniProt P59226 2-16, monomethyl-lysine at K9)
T1 peptide (looked up): ARTKQTARKSTGGKA

T2: H3(1-15)K9me2 peptide (UniProt P59226 2-16, dimethyl-lysine at K9)
T2 construct: range 2-16; Residues 1-15 are stated for the peptide in the crystal structure; also called H3K9me2 peptide; H3K9me2
T2 peptide (looked up): ARTKQTARKSTGGKA

T3: H3K9me3 peptide (UniProt P59226 2-16, trimethyl-lysine at K9)
T3 peptide (looked up): ARTKQTARKSTGGKA

B1: SHH1 SAWADEE domain (residues 125-258) (other)
chain: ADLAFEAKSARDYAWYDVSSFLTYRVLRTGELEVRVRFSGFDNRHDEWVNVKTSVRERSIPVEPSECGRVNVGDLLLCFQEREDQALYCDGHVLNIKRGIHDHARCNCVFLVRYELDNTEESLGLERICRRPEE
B2: SUVH2 (other)
chain: MSTLLPFPDLNLMPDSQSSTAGTTAGDTVVTGKLEVKSEPIEEWQTPPSSTSDQSANTDLIAEFIRISELFRSAFKPLQVKGLDGVSVYGLDSGAIVAVPEKENRELIEPPPGFKDNRVSTVVVSPKFERPRELARIAILGHEQRKELRQVMKRTRMTYESLRIHLMAESMKNHVLGQGRRRRSDMAAAYIMRDRGLWLNYDKHIVGPVTGVEVGDIFFYRMELCVLGLHGQTQAGIDCLTAERSATGEPIATSIVVSGGYEDDEDTGDVLVYTGHGGQDHQHKQCDNQRLVGGNLGMERSMHYGIEVRVIRGIKYENSISSKVYVYDGLYKIVDWWFAVGKSGFGVFKFRLVRIEGQPMMGSAVMRFAQTLRNKPSMVRPTGYVSFDLSNKKENVPVFLYNDVDGDQEPRHYEYIAKAVFPPGIFGQGGISRTGCECKLSCTDDCLCARKNGGEFAYDDNGHLLKGKHVVFECGEFCTCGPSCKSRVTQKGLRNRLEVFRSKETGWGVRTLDLIEAGAFICEYAGVVVTRLQAEILSMNGDVMVYPGRFTDQWRNWGDLSQVYPDFVRPNYPSLPPLDFSMDVSRMRNVACYISHSKEPNVMVQFVLHDHNHLMFPRVMLFALENISPLAELSLDYGLADEVNGKLAICN
notes: Endogenous protein, detected or searched for by mass spectrometry in immunoprecipitates; also called SUVH2 peptides
B3: SUVH9 (other)
chain: MGSSHIPLDPSLNPSPSLIPKLEPVTESTQNLAFQLPNTNPQALISSAVSDFNEATDFSSDYNTVAESARSAFAQRLQRHDDVAVLDSLTGAIVPVEENPEPEPNPYSTSDSSPSVATQRPRPQPRSSELVRITDVGPESERQFREHVRKTRMIYDSLRMFLMMEEAKRNGVGGRRARADGKAGKAGSMMRDCMLWMNRDKRIVGSIPGVQVGDIFFFRFELCVMGLHGHPQSGIDFLTGSLSSNGEPIATSVIVSGGYEDDDDQGDVIMYTGQGGQDRLGRQAEHQRLEGGNLAMERSMYYGIEVRVIRGLKYENEVSSRVYVYDGLFRIVDSWFDVGKSGFGVFKYRLERIEGQAEMGSSVLKFARTLKTNPLSVRPRGYINFDISNGKENVPVYLFNDIDSDQEPLYYEYLAQTSFPPGLFVQQSGNASGCDCVNGCGSGCLCEAKNSGEIAYDYNGTLIRQKPLIHECGSACQCPPSCRNRVTQKGLRNRLEVFRSLETGWGVRSLDVLHAGAFICEYAGVALTREQANILTMNGDTLVYPARFSSARWEDWGDLSQVLADFERPSYPDIPPVDFAMDVSKMRNVACYISHSTDPNVIVQFVLHDHNSLMFPRVMLFAAENIPPMTELSLDYGVVDDWNAKLAICN
notes: Endogenous protein searched for by mass spectrometry in Pol V purifications; also called SUVH2/9 peptides

Columns and labels:
H3K9me1 peptide = target: T1, H3K9me1 peptide; test: ITC; reference is the unmodified H3 peptide
Method: (§1) All the binding experiments were performed on a Microcal calorimeter ITC 200 instrument at 6° C. First, protein samples were dialyzed overnight against a buffer of 100 mM NaCl, 2 mM β-mercaptoethanol and 20 mM HEPES, pH 7.5, at 4° C. Then the protein samples were diluted and the lyophilized peptides were dissolved with the same buffer. The titration was performed according to standard protocol and the data were fit using the Origin 7.0 program with a 1:1 binding model.

H3(1-15)K9me2 peptide = target: T2, H3(1-15)K9me2 peptide; test: ITC; reference is the unmodified H3 peptide
Method: as §1

H3K9me3 peptide = target: T3, H3K9me3 peptide; test: ITC; reference is the unmodified H3 peptide
Method: as §1

NRPE1-Flag (Pol V) = target: T4, NRPE1-Flag (Pol V) (Arabidopsis thaliana, UniProt Q5D869 1-1976); test: immunoprecipitation and mass spectrometry
T4 construct: Bait for the purification of the Pol V complex; also called Flag-tagged Pol V; not shown: Flag tag
T4 sequence (Q5D869 whole entry): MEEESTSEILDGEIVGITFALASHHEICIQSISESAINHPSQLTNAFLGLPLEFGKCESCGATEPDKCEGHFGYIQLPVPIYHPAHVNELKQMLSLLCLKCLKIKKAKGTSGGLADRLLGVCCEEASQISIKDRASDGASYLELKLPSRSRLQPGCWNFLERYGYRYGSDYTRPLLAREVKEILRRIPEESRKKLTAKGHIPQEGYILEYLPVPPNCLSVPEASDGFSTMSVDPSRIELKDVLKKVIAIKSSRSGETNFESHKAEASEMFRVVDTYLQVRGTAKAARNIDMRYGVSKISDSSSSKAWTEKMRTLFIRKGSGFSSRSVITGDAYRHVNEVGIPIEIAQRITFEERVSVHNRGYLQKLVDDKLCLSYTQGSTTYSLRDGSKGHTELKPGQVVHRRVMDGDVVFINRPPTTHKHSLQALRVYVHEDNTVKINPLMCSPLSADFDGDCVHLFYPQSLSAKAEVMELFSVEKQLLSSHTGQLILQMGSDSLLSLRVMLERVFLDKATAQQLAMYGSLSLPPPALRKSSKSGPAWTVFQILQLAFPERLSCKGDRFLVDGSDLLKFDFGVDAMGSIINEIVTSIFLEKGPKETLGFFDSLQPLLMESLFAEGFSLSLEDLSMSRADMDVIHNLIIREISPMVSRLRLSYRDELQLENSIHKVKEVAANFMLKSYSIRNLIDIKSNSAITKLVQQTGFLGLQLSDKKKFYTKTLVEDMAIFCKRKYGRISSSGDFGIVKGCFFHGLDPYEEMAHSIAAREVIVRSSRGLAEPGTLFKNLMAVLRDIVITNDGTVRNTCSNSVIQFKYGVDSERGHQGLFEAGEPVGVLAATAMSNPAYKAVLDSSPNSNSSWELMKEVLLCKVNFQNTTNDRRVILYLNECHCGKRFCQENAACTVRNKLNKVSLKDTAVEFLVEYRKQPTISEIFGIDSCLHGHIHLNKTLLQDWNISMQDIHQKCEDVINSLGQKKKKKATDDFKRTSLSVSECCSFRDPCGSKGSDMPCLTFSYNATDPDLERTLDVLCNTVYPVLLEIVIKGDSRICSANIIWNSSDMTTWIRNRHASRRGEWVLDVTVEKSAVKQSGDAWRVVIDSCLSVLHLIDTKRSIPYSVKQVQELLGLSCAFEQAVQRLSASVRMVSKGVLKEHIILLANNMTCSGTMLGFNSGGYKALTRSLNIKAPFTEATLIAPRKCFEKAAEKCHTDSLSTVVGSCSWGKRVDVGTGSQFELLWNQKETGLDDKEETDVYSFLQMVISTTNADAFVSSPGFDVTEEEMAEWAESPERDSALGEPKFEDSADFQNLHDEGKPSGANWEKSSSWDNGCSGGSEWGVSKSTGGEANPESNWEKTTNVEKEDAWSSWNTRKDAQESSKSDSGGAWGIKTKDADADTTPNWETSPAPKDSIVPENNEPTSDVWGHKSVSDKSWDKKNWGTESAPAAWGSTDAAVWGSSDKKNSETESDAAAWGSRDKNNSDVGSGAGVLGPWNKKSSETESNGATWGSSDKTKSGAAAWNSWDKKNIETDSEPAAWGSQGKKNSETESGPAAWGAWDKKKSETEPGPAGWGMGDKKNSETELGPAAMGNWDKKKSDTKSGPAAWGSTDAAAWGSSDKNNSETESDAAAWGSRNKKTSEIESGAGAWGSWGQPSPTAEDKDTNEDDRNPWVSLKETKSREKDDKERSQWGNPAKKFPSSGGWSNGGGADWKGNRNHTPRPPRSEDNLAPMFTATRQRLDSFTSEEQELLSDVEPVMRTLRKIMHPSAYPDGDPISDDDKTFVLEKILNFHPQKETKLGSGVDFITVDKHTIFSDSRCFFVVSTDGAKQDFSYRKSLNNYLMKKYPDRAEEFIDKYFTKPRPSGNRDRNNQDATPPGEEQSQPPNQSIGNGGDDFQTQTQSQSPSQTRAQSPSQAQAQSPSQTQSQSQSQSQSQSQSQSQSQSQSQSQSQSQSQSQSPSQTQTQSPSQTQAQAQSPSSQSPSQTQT

Row | Binder | fold higher affinity than with unmodified H3 peptides (H3K9me1 peptide) [fold] | fold higher affinity than with unmodified H3 peptides (H3(1-15)K9me2 peptide) [fold] | fold higher affinity than with unmodified H3 peptides (H3K9me3 peptide) [fold] | binding result (NRPE1-Flag (Pol V))
1 | B1 | ~17 | ~17 | ~17 | –
2 | B2 | – | – | – | no binding
3 | B3 | – | – | – | no binding
